From US20210147531A1 (AstraZeneca / MedImmune, published 2021)
Residue numbers refer to the chain shown, from its start. In names and notes the source's numbering stands. Several values for one entry are separate records, joined by “and”; a condition that tells them apart may be missing. Identical values can stand only once. One block for each binder: values may come before it.

Tests used:
human VEGF165 [1] = biological target: T1, human VEGF165 (human, UniProt P15692-4 27-191); experiment: capture ELISA, Fab on anti-Fd, biotinylated VEGF165
T1 construct: the isoform is VEGF165; also called huVEGF; recombinant VEGF165
Procedure: (§1) Briefly, this capture ELISA involved coating individual wells of a 96-well Maxisorp Immunoplate with approximately 50 ng of a sheep anti-human Fd antibody (Biodesign International, ME) in a carbonate buffer at pH 8.5 overnight at 4° C. The next day, the plate was blocked with 3% BSA in PBS buffer for 1 hour at room temperature. Fab supernatant was then added to the plate and incubated at room temperature for 1 hour. After washing, the biotinylated VEGF165 protein was added to the well and the mixture was incubated for 1.5 hours at room temperature. This was followed by incubation with neutravidin-horseradish peroxydase (HRP) conjugate (Pierce, Ill.) for approximately 40 minutes at room temperature. HRP activity was detected with tetra-methyl-benzidine (TMB) substrate and the reaction quenched with 0.2 M H2SO4. Plates were read at 450 nm.
(§2) The Fab concentration was determined by comparing the ELISA signals with the signals generated by the reference Fab.

mouse VEGF164 [2] = biological target: T2, mouse VEGF164 (mouse, UniProt Q00731-2 27-190); experiment: ELISA on murine VEGF164 (Example 7), O.D. 450 nm against antibody concentration, 4-parameter fit
T2 construct: also called mVEGF164; murine VEGF164
T2 sequence (looked up): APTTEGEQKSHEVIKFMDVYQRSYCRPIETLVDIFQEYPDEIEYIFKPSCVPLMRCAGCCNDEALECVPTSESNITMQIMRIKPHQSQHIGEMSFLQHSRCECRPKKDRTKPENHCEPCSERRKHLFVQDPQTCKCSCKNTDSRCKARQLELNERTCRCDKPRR
Procedure: (§3) EC50 values were determined using non-linear regression analysis (log dose response, 4-parameter fit curves) in GraphPad Prism, version 5.01 (San Diego, Calif.).

human VEGF121 = biological target: T3, human VEGF121 (human, UniProt P15692-9 27-147); experiment: ELISA on human VEGF121 (Example 8), OD 450 nm against antibody concentration, 4-parameter fit
T3 construct: the isoform is VEGF121
T3 sequence (looked up): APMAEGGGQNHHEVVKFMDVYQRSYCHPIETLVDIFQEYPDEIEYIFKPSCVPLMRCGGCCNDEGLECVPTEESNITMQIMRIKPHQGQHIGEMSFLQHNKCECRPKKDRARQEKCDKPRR
Procedure: as §3

human VEGF165 [3] = biological target: T1, human VEGF165; experiment: KinExA, IgG in solution, huVEGF165-coated beads
Procedure: Coated beads were then separated (spin) from unreacted huVEGF protein solution, and blocked with 1M Tris, pH 8, containing BSA at 10 mg/mL), for approximately 15 minutes at room temperature. After this, the bead slurry was spun to remove the blocking solution, and then the block step was repeated for approximately 2 hours using fresh block buffer, and stored at 4° C. until used. Prior to use, the huVEGF-coated beads were transferred to a bead vial, resuspended in approximately 27 mLs of instrument buffer (10 mM HEPES+300 mM NaCl+5 mM CaCl₂+0.05% P20+0.02% NaN₃, pH8), and affixed to the KinExA instrument. […] These concentrations of mAbs were chosen to allow each KD measurement to be made under both receptor- and KD-controlled conditions, leading to more rigorous estimations of reagent activity and affinity, respectively. […] Two-fold serial dilutions of huVEGF protein were then titrated across 9 of the tubes in each mAb series, followed by two additional 10-fold-dilutions, leaving one tube as the mAb-only, “zero” control. […] Based on theory curve simulations available through the vendor software (Sapidyne Instruments, Boise, Idaho), the mixtures were incubated 1-4 days at room temperature to allow binding to reach equilibrium. At the end of this time, signal-testing experiments were conducted to determine the appropriate run conditions for each set of measurements.

human VEGF165 [4] = biological target: T1, human VEGF165; experiment: ELISA of Fabs at normalised concentrations on VEGF165 (Example 5), OD450 against Fab ug/ml
Procedure: as §1, §2

human VEGF165 [5] = biological target: T1, human VEGF165; experiment: VEGF165 ELISA of purified IgGs, OD450 against ug/ml
mouse VEGF164 [6] = biological target: T2, mouse VEGF164; experiment: ELISA, coated VEGF, IgG, anti-human-Fc-HRP
Procedure: (§4) The 96-well microtiter plates (Corning) were coated with 50 μl/well of human and mouse VEGF165 or VEGF121 at a concentration of 5 μg/ml in PBS at 4° C. overnight. After being washed three times with PBS containing 0.1% Tween-20 (PBST), the wells were blocked with blocking buffer (4% skimmed milk in PBS). After 1 h incubation at room temperature, the plates were washed with PBST and a 2-fold serial dilution of the antibodies (starting from 8 nM) in blocking buffer were added and incubated for 1 hour at room temperature. The antibody solution was removed by washing with PBST followed by 1 hour incubation at room temperature with a 1:3000 dilution of an anti-human-Fc-HRP antibody (Thermo Scientific) prepared in PBST. Binding was visualized with the addition of 50 μL of SureBlue Reserve TMB substrate (KPL) for 5 minutes at room temperature and the reaction was stopped by adding 50 μL of TMB Stop Solution (KPL). The absorbance at 450 nm was measured using a microtiter plate reader. The data were analyzed using Prism 5 software (GraphPad).

human VEGF165 [7] = biological target: T1, human VEGF165; experiment: ELISA, coated VEGF, IgG, anti-human-Fc-HRP
Procedure: as §4

B1: D04 Fab (Fab, V domains shown)
VH: EVQLLESGGGLVQPGGSLRLSCAASGFTFSWYEMYWVRQAPGKGLEWVSSISPSGGWTMYADSVKGRFTISRDNSKNTLYLQMNSLRAEDTAVYYCATPLYSSDGLSAGDIWGQGTMVTVSS
VL: EIVLTQSPATLSLSPGERATLSCRASQSVHSSYLAWYQQKPGQAPRLLIYGASSRATGIPDRFSGSGSGTDFTLTISRLEPEDFAVYYCQQSYSTPSFGQGTRLEIT
notes: Point mutant of M4 tested as Fab; Fab constant parts not specified
fold improvement in EC50 compared to germline E06 as Fabs (human VEGF165 [1]): > 10 fold

B2: J05 IgG (antibody, V domains shown)
VH: B1 VH
VL: EIVLTQSPATLSLSPGERATLSCRASQSVSSSYLAWYQQKPGQAPRLLIYGASSRATGIPDRFSGSGSGTDFTLTISRLEPEDFAVYYCQQSYRTPSFGQGTRLEITR
EC50 (mouse VEGF164 [2]): 0.046 nM
EC50 (human VEGF121): 4.97 nM
FoldΔ KD vs. EO6-wt (human VEGF165 [3]): 11 fold
Kd (human VEGF165 [3]): 0.22 nM

B3: J05 Fab (Fab, V domains shown)
VH: B1 VH
VL: B1 VL with H30S, S94R
notes: Point mutant (VL S94R) of M4 tested as Fab; Fab constant parts not specified; also called point mutant J05
fold improvement in EC50 compared to germline E06 as Fabs (human VEGF165 [1]): > 10 fold
fold improvement of binding over E06 (human VEGF165 [1]): ~25 fold

B5: H1DR IgG (antibody, V domains shown)
VH: B1 VH
VL: B2 VL with S30H, S92D
EC50 (read off the curve) (human VEGF165 [5]): ~0.1 µg/mL
EC50 (mouse VEGF164 [2]): 0.043 nM
EC50 (human VEGF121): 0.017 nM

Now from value to binder:

binding result (human VEGF165 [4]): binds
B4: E06 germline M4 Fab (Fab, V domains shown)
VH: B1 VH
VL: B1 VL with H30S
notes: Fab; D1E/Q3V/M4L/T86V in the VL against E06; Fab constant parts not specified; also called germline clone M4; germline E06

EC50 (mouse VEGF164 [6]): 0.049 nM
EC50 (human VEGF165 [7]): 0.048 nM
EC50 (read off the curve) (human VEGF165 [5]): ~0.07 µg/mL and ~0.06 µg/mL
EC50 (mouse VEGF164 [2]): 0.03 nM
Kd (human VEGF165 [3]): 2.52 nM
B6: E06 full length IgG (antibody, V domains shown)
VH: B1 VH
VL: B2 VL with E1D, V3Q, L4M, V86T, R94S
notes: also called antibody E06; Wt (E06)

fold improvement in EC50 compared to germline E06 as Fabs (human VEGF165 [1]): > 10 fold
B7: I20 Fab (Fab, V domains shown)
VH: B1 VH
VL: B1 VL with H30S, S92D
notes: as for B1
